Experimental data taken from patent US20100047245A1.

Tests used:
[1] = molecular target: recombinant purified human IL-12 p70 (human) (UniProt P29459); test: competition ELISA on plate-coated human IL-12; competes 0.8 µg/ml biotinylated 8E1; Expt. 3
[2] = molecular target: recombinant purified human IL-12 p70 (human) (UniProt P29459); test: SPR (Biacore 3000), mAb captured via goat anti-mouse IgG Fc, human IL-12 p70 in solution
[3] = molecular target: recombinant purified human IL-12 p70 (human) (UniProt P29459); test: cell-based or functional assay
[4] = molecular target: recombinant purified human IL-12 p70 (human) (UniProt P29459); test: competition ELISA on plate-coated human IL-12; competes 0.8 µg/ml biotinylated 8E1; Expt. 1
[5] = molecular target: recombinant purified human IL-12 p70 (human) (UniProt P29459); test: competition ELISA on plate-coated human IL-12; competes 0.8 µg/ml biotinylated 8E1; Average
[6] = molecular target: recombinant purified human IL-12 p70 (human) (UniProt P29459); test: competition ELISA on plate-coated human IL-12; competes 0.8 µg/ml biotinylated 8E1; Expt. 2
[7] = molecular target: recombinant purified human IL-12 p70 (human) (UniProt P29459); test: SPR (Biacore) per Example 1.1.B, recombinant human IL-12p70
[8] = molecular target: recombinant purified human IL-12 p70 (human) (UniProt P29459); test: SPR (Biacore) per Example 1.1.B; antigen not restated, taken as human IL-12 p70

Chain of recombinant purified human IL-12 p70 (human) (chain, as listed by the source, form in doubt, chain 1 of 2): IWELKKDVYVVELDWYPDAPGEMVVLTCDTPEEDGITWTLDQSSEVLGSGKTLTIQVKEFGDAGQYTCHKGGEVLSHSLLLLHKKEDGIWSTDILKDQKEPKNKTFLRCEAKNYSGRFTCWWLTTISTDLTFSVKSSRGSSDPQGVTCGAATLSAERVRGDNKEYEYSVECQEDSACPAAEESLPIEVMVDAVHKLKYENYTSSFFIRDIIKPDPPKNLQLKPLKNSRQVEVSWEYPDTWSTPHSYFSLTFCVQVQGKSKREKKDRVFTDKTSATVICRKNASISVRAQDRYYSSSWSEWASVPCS
Chain of recombinant purified human IL-12 p70 (human) (P29459 23-219, form in doubt, chain 2 of 2): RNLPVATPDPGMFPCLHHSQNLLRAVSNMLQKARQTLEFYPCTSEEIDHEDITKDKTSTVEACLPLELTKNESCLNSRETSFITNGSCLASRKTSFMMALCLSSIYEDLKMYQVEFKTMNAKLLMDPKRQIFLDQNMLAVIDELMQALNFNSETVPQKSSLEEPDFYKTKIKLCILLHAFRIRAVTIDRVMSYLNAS

IC50 [1] | Kd [2] | koff [2] | kon [2] | Average IC50 (nM) Human IL-12; PHA blast IFN-gamma induction assay [3] | IC50 [4] | IC50 [5] | IC50 [6] | Av. IC50 (nM) Hu IL-12; PHA blast IFN-gamma induction assay [3] | Kd [7] | koff [7] | kon [7] | Kd [8] | koff [8] | kon [8] | Av. IC50(nM) huIL-12; PHA blast IFN-gamma induction assay [3] | Binder
– | – | – | – | – | – | – | – | 2.8 nM | 1700 pM | 0.00087 s⁻¹ | 520000 M⁻¹ s⁻¹ | – | – | – | – | 8E1.1 (antibody, human IgG1, kappa, L234A L235A, V domains shown) VH: EVQLVESGGGLVQPGGSLRLSCAASGFTFSDYGMVWVRQAPGKGLEWVGSISSGSSNIYYADTVKGRFTISRDDSKNSLYLQMNSLKTEDTAVYYCARNPYWGQGTTVTVSS VL: DIQMTQSPSSLSASVGDRVTITCKASQNVGTNVAWYQQKPEKAPKSLIYSASHRYSGVPSRFSGSGSGTDFTLTISSLQPEDFATYYCQQYNSYPLTFGGGTKVEIKR
1.61 µg/mL | – | – | – | – | 2.25 µg/mL | 2.1 µg/mL | 2.43 µg/mL | – | – | – | – | 46 pM | 8e-05 s⁻¹ | 1.7e+06 M⁻¹ s⁻¹ | – | 8E1.6 (antibody, V domains shown) VH: EVQLVESGGGLVQPGGSLRLSCAASGFTFSDYGMVWVRQAPGKGLEWVASISSGSSNIYYADTVKGRFTISRDDAKNTLYLQMNSLRAEDTAVYYCARNPYWGQGTLVTVSS VL: DIQMTQSPSSLSASVGDRVTITCKASQNVGTNVAWYQQKPGKAPKGLIYSASHRYSGVPSRFSGSGSGTDFTLTISSLQPEDFATYYCQQYNSYPLTFGGGTKVEIKR

Second part, the binder before the results:

Binder | IC50 [1] | Kd [2] | koff [2] | kon [2] | Average IC50 (nM) Human IL-12; PHA blast IFN-gamma induction assay [3] | IC50 [4] | IC50 [5] | IC50 [6] | Av. IC50 (nM) Hu IL-12; PHA blast IFN-gamma induction assay [3] | Kd [7] | koff [7] | kon [7] | Kd [8] | koff [8] | kon [8] | Av. IC50(nM) huIL-12; PHA blast IFN-gamma induction assay [3]
8E1 (antibody, V domains shown) VH: EVKLVESGGGLVQPGGSRKLSCAASGFTFSDYGMVWVRQAPGKGLEWVASISSGSSNIYYADTVKGRFTISRDDPNNTLFLQMRSLRSEDTAMYYCARNPYWGQGTTLTVSS VL: DIVMTQSQKFMSTSVGDRVSVTCKASQNVGTNVAWYQQKPGQSPKGLIYSASHRYSGVPDRFAGSGSGTDFTLTISNVQSEDLAEYFCQQYNSYPLTFGGGTKLELKR | 2.28 µg/mL | 74 pM | 5.1e-05 s⁻¹ | 690000 M⁻¹ s⁻¹ | 0.19 nM | 2.63 µg/mL | 2.56 µg/mL | 2.78 µg/mL | – | – | – | – | – | – | – | –
8E1.5 (antibody, IgG1, V domains shown) VH: EVQLVESGGGLVQPGGSLRLSCAASGFTFSDYGMVWVRQAPGKGLEWVASISSGSSNIYYADTVKGRFTISRDNAKNTLYLQMNSLRAEDTAVYYCARNPYWGQGTLVTVSS VL: DIQMTQSPSSLSASVGDRVTITCKASQNVGTNVAWYQQKPGKAPKGLIYSASHRYSGVPDRFSGSGSGTDFTLTISSLQPEDFATYYCQQYNSYPLTFGGGTKVEIKR | 13.4 µg/mL | – | – | – | – | – | – | – | – | – | – | – | 750 pM | 0.00124 s⁻¹ | 1.6e+06 M⁻¹ s⁻¹ | 8 nM
